Patent publication EP3988566A1 (AC Immune SA, dated 2022)

Target: Amyloid Beta (antigen of the Amyloid Beta ELISA) (UniProt P05067 672-713, limits assumed)
Assay: Amyloid Beta ELISA, purified antibodies

Amyloid Beta (antigen of the Amyloid Beta ELISA), sequence (P05067 672-713 limits assumed): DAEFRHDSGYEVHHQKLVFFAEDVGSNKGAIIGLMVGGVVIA

B1: humanized antibody C2 HuVH2/HuVK3 (antibody, V domains shown)
VH: EVQLVESGGGLVQPGGSLRLSCAASGFTFSSYGMSWVRQAPGKGLEWVASINSNGGSTYYPDSVKGRFTISRDNAKNSLYLQMNSLRAEDTAVYYCASGDYWGQGTTVTVSS
VL: DIVMTQSPLSLPVTPGEPASISCRSSQSLVYSNGDTYLHWYLQKPGQSPKLLIYKVSNRFSGVPDRFSGSGSGTDFTLKISRVEAEDVGVYYCSQSTHVPWTFGQGTKVEIKR
In the case of B1, the “fold reduction of binding activity against the chimeric control antibody C2 ChVHAF/ChVK” value is reported as ~2 fold.
